Among the data in article PMC9122598, “NASP maintains histone H3–H4 homeostasis through two distinct H3 binding modes” (Nucleic Acids Research, 2022) are stoichiometry N and Kd values, retold here.

Assay [1] concerns the target frog NASP.Sc dimer (X. laevis NASP.S a.a. 23–495, Δ97–314; 'NASP.S core') (Xenopus laevis) (UniProt P06180). As to the kind of experiment: SEC-MALS; single purified protein on Superdex 200 Increase 10/300 GL; 20 mM Tris pH 7.5, 0.5 M NaCl; room temperature. On the technique in general: Size exclusion chromatography separates by hydrodynamic size, large species first.
For assay [2], the target named is Histone H3 (MBP fusion) 116-135 (Homo sapiens) (UniProt P68431). Particulars: cited from earlier work.
For assay [3], the target named is sNASPc dimer (human sNASP a.a. 30–340, Δ101–159; 'sNASP core') (human) (UniProt P49321). Briefly: SEC-MALS; single purified protein on Superdex 200 Increase 10/300 GL; 20 mM Tris pH 7.5, 0.5 M NaCl; room temperature.

pKd: −log10 of the molar value.

Chain of sNASP (P49321 2-788): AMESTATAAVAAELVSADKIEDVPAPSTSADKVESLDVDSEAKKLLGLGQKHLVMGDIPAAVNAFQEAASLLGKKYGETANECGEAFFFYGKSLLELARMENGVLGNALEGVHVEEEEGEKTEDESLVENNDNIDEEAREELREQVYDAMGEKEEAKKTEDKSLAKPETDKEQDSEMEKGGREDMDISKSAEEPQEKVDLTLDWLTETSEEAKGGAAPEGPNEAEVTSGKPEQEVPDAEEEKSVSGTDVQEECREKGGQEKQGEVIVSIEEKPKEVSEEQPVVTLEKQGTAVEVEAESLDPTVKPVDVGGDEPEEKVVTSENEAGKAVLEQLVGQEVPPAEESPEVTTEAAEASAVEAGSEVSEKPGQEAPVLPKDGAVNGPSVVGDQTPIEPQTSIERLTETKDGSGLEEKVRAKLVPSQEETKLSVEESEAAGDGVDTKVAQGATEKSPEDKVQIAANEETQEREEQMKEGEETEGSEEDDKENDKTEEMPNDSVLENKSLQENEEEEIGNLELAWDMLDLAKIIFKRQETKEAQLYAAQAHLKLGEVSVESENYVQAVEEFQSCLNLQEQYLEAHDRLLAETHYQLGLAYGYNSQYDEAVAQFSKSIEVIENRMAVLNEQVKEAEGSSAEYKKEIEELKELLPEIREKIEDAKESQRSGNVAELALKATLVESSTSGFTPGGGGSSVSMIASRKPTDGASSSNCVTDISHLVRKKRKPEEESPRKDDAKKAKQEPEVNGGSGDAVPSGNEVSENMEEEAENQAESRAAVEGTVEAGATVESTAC

For the substance “frog NASP.Sc dimer (X. laevis NASP.S a.a. 23–495, Δ97–314; 'NASP.S core') (from UniProt P06180 23-495) (domain or fragment)”, the stoichiometry N (as a rule, a count of units in the complex or per binding partner) in assay [1] was 2.

For the substance sNASP (from UniProt P49321), the pKd (usually −log10 of the Kd, conventionally taken in molar units) in assay [2] is 7.21.

In turn, “sNASPc dimer (human sNASP a.a. 30–340, Δ101–159; 'sNASP core') (from UniProt P49321-2 30-340) (domain or fragment)” displayed a stoichiometry N in assay [3] of 2.
